The target of one test is T1, recombinant human EpCAM (human, UniProt P16422 24-265).
T1 construct: also called rhEpCAM
T1 sequence (looked up): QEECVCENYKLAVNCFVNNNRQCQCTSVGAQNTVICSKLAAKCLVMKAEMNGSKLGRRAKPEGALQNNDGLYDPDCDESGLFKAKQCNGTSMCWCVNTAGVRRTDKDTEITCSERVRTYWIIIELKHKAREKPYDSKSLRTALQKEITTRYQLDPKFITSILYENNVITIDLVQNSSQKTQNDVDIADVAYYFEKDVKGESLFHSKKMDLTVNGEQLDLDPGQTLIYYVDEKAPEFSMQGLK
The test can be described thus: ELISA. On the technique in general: In an ELISA, binding on a coated surface is turned into a signal by an enzyme label.

For test [1], the target named is T2, recombinant human IGFBP-1 (human, UniProt P08833 26-259).
T2 construct: also called rhIGFB-1
T2 sequence (looked up): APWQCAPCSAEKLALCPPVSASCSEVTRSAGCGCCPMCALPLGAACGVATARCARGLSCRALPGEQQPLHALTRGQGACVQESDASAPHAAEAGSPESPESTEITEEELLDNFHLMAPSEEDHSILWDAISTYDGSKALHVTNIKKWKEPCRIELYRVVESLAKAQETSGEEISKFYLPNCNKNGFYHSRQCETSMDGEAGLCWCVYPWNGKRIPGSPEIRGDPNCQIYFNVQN
The test can be described thus: ELISA.

A further test deals with T3, HEK-TROP2 Δ27-36.
T3 construct: also called TROP2 delta 27-36
T3 membrane protein on transfected HEK cells: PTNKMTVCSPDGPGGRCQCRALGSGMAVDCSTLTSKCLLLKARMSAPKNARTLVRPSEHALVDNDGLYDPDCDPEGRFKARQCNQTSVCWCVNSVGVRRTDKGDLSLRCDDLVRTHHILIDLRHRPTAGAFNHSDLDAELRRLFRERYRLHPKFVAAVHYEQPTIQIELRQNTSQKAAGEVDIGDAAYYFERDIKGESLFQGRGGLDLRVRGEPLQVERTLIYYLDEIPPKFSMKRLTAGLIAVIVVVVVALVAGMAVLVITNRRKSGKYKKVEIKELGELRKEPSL
The test can be described thus: flow cytometry, 100 nM antibody, transiently transfected HEK cells, APC anti-human Fc. How it is done:
(§1) To determine the effect of TROP2 truncations on the binding ability of anti-TROP2 sdAbs, the HEK parental cells were transiently transfected with human TROP2 mutants by lipofectamine. 24 hours after transfection, cells were collected and stained with anti-TROP2 antibodies (FIG. 13A and FIG. 13B). In brief, 1×10⁵ cells were incubated with an Fc receptor blocking antibody (1/100 dilution) for 10 minutes at room temperature. Anti-TROP2 antibodies were diluted in FACS staining buffer to 100 nM and added and incubated with cells for 30 minutes on ice. After washing three times with FACS staining buffer, APC-conjugated secondary antibodies recognizing the human Fc region (Biolegend, Cat #410712) were mixed with cells. After staining for 30 minutes, cells were washed three times, followed by resuspension into 100 μL of 7-Amino-Actinomycin D (7-AAD) solution (BD Biosciences, Cat #559925).
On the technique in general: In flow cytometry, cells or beads pass a laser one at a time.

For a further test, the target named is T4, HEK-TROP2 Δ27-44.
T4 construct: also called TROP2 delta 27-44
T4 membrane protein on transfected HEK cells: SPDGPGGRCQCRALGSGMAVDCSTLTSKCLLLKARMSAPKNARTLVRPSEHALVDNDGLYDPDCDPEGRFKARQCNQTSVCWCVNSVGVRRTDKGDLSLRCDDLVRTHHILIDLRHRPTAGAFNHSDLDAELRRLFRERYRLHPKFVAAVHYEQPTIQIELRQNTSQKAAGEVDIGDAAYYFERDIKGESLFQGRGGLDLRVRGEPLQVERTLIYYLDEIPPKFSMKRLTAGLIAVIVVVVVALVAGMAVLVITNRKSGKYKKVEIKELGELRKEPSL
The test is described as above. How it is done: as §1

The target of test [2] is T5, TROP2 delta 27-56 on HEK cells (human, UniProt P09758 1-323).
T5 construct: Human TROP2 with residues 27-56 deleted, transiently transfected into HEK cells; also called TROP2 with 27-56 regions truncated
T5 chain: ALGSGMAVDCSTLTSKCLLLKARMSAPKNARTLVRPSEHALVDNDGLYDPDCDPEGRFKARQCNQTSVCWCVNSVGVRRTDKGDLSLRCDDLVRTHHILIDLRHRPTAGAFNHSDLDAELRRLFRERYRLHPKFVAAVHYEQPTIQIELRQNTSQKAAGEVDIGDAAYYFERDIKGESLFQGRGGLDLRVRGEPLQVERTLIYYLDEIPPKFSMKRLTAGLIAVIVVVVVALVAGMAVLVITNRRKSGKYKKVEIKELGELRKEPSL
Described as above. The method, then: as §1

For test [3], the target named is T6, recombinant human TROP2 extracellular domain (aa 1-274) comprising His tag (human, UniProt P09758 27-274).
T6 construct: Used here for all assays on recombinant human TROP2 (ELISA, immunoblot, SPR, crystal), although only some of them name the catalogue number; also called human recombinant TROP2; recombinant human TROP2 protein; not shown: His tag
T6 sequence: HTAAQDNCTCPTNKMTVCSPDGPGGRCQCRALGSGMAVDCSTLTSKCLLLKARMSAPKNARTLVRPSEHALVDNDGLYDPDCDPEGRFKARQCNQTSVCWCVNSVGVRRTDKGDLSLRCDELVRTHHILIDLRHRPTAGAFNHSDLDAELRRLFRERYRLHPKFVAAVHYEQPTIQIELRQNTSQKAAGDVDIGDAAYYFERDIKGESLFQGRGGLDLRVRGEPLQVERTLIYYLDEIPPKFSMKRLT
The test can be described thus: competitive ELISA on coated recombinant human TROP2, competitor 1428.6 pM His-tagged KD006, anti-His-HRP secondary Ab. The method, then:
The epitope characterization was assessed by competitive ELISA (FIG. 8 and FIG. 9). Microplates were coated with human recombinant TROP2 at 4° C. overnight. After washing, plates were blocked with blocking buffer (PBS+2% BSA), for 1 hour at room temperature. Meanwhile, the dilution for anti-TROP2 VHH sdAbs was prepared with blocking buffer making two different dilutions depending on the tag. For sdAbs with His tag, the antibody was diluted to 28571.4 pM. For sdAbs without tag, antibodies were serially diluted from 2857142.9 pM to 0.29 pM (8 dilutions, 10×). […] After washing two times, the mixed antibody contents were added into the wells and the plates were incubated for 2 hours at room temperature. The HRP-conjugated anti-6× His was diluted to 1:5000 and added to the wells after washing three times. Any unbound conjugate was removed by washing after 1 hour incubation at room temperature, and the colorimetric reaction was performed by adding the same volume of Supersignal ELISA Pico Luminol/Enhancer and SuperSignal ELISA Pico Stable Peroxide Solution and detected on SpectraMax i3x Microplate Reader. Positive and negative controls were included in each plate.

B1: KD006 (antibody, human IgG1, V domains shown)
VH: QVQLQESGGGLVQAGNSLRLSCVASVRTFSTKAMGWFRQAPGKEREFTAAISESGSTYYADSVKDRFTISRDNVKNTVYLQMNSLKPEDTAVYYCGVKWYSGSFDDTRSYDYWGQGTQVTVSS
notes: also called anti-TROP2 sdAb KD006
As for B1, the binding result with recombinant human EpCAM is “no binding”; in test [1] it was “no binding”; with HEK-TROP2 Δ27-36 it was “binds”; in the test with HEK-TROP2 Δ27-44, “binds”; in test [2], “binds”. For the same molecule, in test [3], the “IC50 (read off the curve)” value is about 4 nM.

The values above are taken from patent publication US20240360242A1 (KISOJI BIOTECHNOLOGY, published 2024).
